Test results reported in paper PMC9870165.

Assays:
[1] = target: ZIKV E protein on wild-type Zika virus H/PF/2013 in culture supernatant (Zika virus (strain H/PF/2013)); assay: ELISA; ZIKV capture ELISA: virus in culture supernatant captured by plate-bound mAb 4G2; serially diluted Fabs added 1 h at 37°C; anti-human Fab alkaline phosphatase; EC50 from titration
[2] = target: recombinant ZIKV E protein (ectodomain of Zika virus envelope glycoprotein E) (Zika virus); assay: crystal structure; recombinant ZIKV E and G9E Fab mixed 1:1.2 at room temperature for 30 min, complex purified on Superdex 200-increase; crystals in 100 mM HEPES pH 7.5, 10% (w/v) PEG 8000; 3.4 Å

## G9E-S1/2 Fab (paratope mutant D53A, D54A, D57S, Q58A, K76S)
[1]
  fold weaker binding than G9E-S2: 30 fold

## G9E-S2 Fab (paratope mutant D57S, Q58A, K76S)
[1]
  fold reduction in binding compared to WT G9E: 10 fold

## recombinant ZIKV E protein (ectodomain of Zika virus envelope glycoprotein E) (domain or fragment)
[2]
  stoichiometry N: 2
